Test [1] deals with T1, spike RBD of SARS-CoV-2 Omicron expressed in a mammalian system (SARS-CoV-2 Omicron, taken as BA.1, strain, N-linked glycans appended on N331 and N343).
T1 construct: also called Mammalian RBDomi; mammalian cell-expressing RBDomi
Nature of the test: ELISA; 4 ug of recombinant RBD immobilised on a high-binding plate; blocked with 4% skim milk; serial-diluted antibody in PBST; detected with Protein A-HRP, 450 nm. The conditions noted are these: both partners purified. Background: In an ELISA, binding on a coated surface is turned into a signal by an enzyme label.

Test [2] concerns the target T2, MBP-fused spike receptor binding domain of SARS-CoV-2 Omicron BA.1 (MBP-RBDomi) (SARS-CoV-2 Omicron BA.1 (GenBank …, strain)).
T2 construct: also called MBP-fused Omicron RBD; MBP-RBD_(omicron)
The description is as above. Conditions: both partners purified.

B1: CR3022, human IgG1 (antibody, V domains shown)
VH: QMQLVQSGTEVKKPGESLKISCKGSGYGFITYWIGWVRQMPGKGLEWMGIIYPGDSETRYSPSFQGQVTISADKSINTAYLQWSSLKASDTAIYYCAGGSGISTPMDVWGQGTTVTV
VL: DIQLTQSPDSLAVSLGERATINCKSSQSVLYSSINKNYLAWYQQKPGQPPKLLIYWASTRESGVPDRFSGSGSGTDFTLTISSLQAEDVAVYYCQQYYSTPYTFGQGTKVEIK
notes: IgG1
On to B1, for which the binding result in test [1] and in test [2] was “binds” throughout.

The record behind these values is publication PMC9687980 (Bioengineering, 2022).
